{"source": "patent US20060111296A1", "about": "(DYAX, published 2006)", "binders": {"B1": {"name": "DX-1000 (designed binder)", "chain": "MHSFCAFKAETGPCRARFDRWFFNIFTRQCEEFIYGGCEGNQNRFESLEECKKMCTRD", "notes": "Engineered Kunitz domain on the human LACI-K1 framework; also called DX-1000 (unmodified)"}}, "target": "T1, plasmin (human, UniProt P00747 97-810, limits assumed)", "T1 construct": "Active plasmin is a two-chain, disulfide-linked form of plasminogen; also called human plasmin", "T1 sequence (P00747 97-810 limits assumed)": "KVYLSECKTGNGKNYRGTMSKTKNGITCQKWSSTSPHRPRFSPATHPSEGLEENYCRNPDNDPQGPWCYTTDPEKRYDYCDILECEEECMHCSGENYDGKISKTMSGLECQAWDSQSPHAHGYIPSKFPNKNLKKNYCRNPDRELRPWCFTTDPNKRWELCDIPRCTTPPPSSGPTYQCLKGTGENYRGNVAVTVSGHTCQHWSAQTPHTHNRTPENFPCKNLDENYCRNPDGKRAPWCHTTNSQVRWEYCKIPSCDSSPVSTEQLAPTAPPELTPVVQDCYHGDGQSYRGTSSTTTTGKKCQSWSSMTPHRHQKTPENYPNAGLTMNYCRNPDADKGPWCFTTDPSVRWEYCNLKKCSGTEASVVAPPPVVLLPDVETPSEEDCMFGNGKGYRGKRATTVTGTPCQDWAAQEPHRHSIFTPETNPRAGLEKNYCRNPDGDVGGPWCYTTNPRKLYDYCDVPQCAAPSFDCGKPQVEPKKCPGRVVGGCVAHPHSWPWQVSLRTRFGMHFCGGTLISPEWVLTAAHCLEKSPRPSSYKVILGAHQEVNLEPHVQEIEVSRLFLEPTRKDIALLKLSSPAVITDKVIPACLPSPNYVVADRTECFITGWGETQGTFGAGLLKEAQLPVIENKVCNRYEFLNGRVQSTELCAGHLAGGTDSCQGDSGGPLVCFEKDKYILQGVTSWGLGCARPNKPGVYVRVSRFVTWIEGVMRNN", "test": "inhibition constant for human plasmin; method not described", "data": [{"binder": "B1", "values": [{"measurement": "Ki", "result": 0.088, "unit": "nM"}]}]}
